From publication PMC6404581, “Staphylococcus aureus toxin LukSF dissociates from its membrane receptor target to enable renewed ligand sequestration” (The FASEB Journal, 2018)

B1: G130D leukocidin component F (natural protein, Staphylococcus aureus)
chain: MGSQHITPVSEKKVDDKITLYKTTATSDSDKLKISQILTFNFIKDKSYDKDTLILKAAGNIYSGYTKPNPKDTISSQFYWGSKYNISINSDSNDSVNVVDYAPKNQNEEFQVQQTVGYSYGGDINISNGLSGDGNGSKSFSETINYKQESYRTSLDKRTNFKKIGWDVEAHKIMNNGWGPYGRDSYHSTYGNEMFLGSRQSNLNAGQNFLEYHKMPVLSRGNFNPEFIGVLSRKQNAAKKSKITVTYQREMDRYTNFWNQLHWIGNNYKDENRATHTSIYEVDWENHTVKLIDTQSKEKNPMSAAA
notes: cloning residues before LukF; LukF-PV, S. aureus; they already carry the D (LSGDGNG); residues from the NotI site between LukF and the C-terminal His6; also called F(G130D); LukF mutant G130D LukF; source: E. coli Rosetta-gami 2 (DE3) pLysS, purified (nickel HisTrap, Superdex 75)

Tests used:
[1] = biological target: sortase-tagged FITC-labeled human C5a receptor, on HEK cells (human) (UniProt P21730); test: FRET or BRET; sensitized emission FRET, live sortase-tagged FITC-hC5aR cells (donor) with Cy3 mS* (acceptor), 1 h at +4°C, washed, before addition of mF
Sequence of sortase-tagged FITC-labeled human C5a receptor, on HEK cells (human) (P21730 whole entry): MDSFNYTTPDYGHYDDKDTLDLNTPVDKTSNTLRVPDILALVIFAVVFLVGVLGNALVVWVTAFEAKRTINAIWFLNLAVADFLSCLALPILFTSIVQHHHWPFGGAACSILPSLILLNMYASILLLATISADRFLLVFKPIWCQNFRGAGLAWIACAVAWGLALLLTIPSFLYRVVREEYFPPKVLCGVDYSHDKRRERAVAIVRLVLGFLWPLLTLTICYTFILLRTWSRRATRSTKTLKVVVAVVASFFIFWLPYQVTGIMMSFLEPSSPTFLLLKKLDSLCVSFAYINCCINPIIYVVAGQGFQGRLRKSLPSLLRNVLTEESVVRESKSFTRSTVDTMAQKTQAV

[2] = biological target: human C5a receptor, endogenous on human polymorphonuclear cells (human (endogenous in PMNs)) (UniProt P21730)
Sequence of human C5a receptor, endogenous on human polymorphonuclear cells (human (endogenous in PMNs)) (P21730 whole entry): as above

[3] = biological target: sortase-tagged FITC-labeled human C5a receptor, on HEK cells (human) (UniProt P21730); test: FRET or BRET; sensitized emission FRET, fixed FITC-hC5aR cells with one Cy3-labeled toxin component alone (Cy3 mS* or only Cy3 mF*), 30 min at 4°C then 10 min at 37°C, washed, fixed, PBS
[4] = biological target: T1, wild-type Staphylococcus aureus leukocidin S (Staphylococcus aureus, UniProt O80066 29-312); test: flow cytometry on cells; details: both partners purified
T1 construct: also called S(wt); LukS; source: E. coli Rosetta-gami 2 (DE3) pLysS, purified (nickel HisTrap, Superdex 75)
T1 sequence: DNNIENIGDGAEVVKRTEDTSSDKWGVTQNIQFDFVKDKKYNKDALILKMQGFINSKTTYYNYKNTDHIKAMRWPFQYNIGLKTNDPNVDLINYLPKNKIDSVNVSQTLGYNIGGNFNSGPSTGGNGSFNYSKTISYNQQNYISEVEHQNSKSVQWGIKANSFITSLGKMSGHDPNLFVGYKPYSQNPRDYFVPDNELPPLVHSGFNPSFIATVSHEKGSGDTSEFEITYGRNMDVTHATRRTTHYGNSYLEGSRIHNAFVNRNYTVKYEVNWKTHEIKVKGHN

Molecule | FRET efficiency [1] | toxin concentration at which PMN permeabilization (DAPI uptake, flow cytometry, 30 min) reaches 100%; modified toxins in place of the wild-type ones [2] | FRET efficiency [3] | binding result [4]
maleimide-labeled LukS-K281C-Y113H (natural protein) | 75% | 3 nM | 60% | –
B1 | – | – | – | binds
